# T1: HLA-DRB1*0101 (human)
# T1 chain 1: not shown
# T1 chain 2: not shown
# T2: HLA-DRB1*0301 (human)
# T2 chain 1: not shown
# T2 chain 2: not shown
# T3: HLA-DR3 (DRB1*0301) (human)
# T3 chain 1: not shown
# T3 chain 2: not shown
# Assays:
# [1] = molecular target: HLA-A*2401 (human); test: competition with 125I-labelled standard peptide for purified HLA, gel filtration
# [2] = molecular target: HLA-A*0201 (human); test: competitive inhibition of 125I-labeled probe peptide binding to purified HLA-A*0201; details: remark: other sources report otherwise
# [3] = molecular target: HLA-A*6802 (human); test: competition for purified HLA vs 125I-labelled probe peptide, gel filtration; details: remark: other sources report otherwise
# [4] = molecular target: HLA-A*2401 (purified HLA class I molecule) (human); test: competition with 125I-labelled standard peptide for purified HLA, gel filtration; details: scale: ratio
# [5] = molecular target: HLA-A*3101 (human); test: competition with 125I-labelled standard peptide for purified HLA; gel filtration; details: remark: other sources report otherwise
# [6] = molecular target: T1, HLA-DRB1*0101 (human); test: competition with 125I probe peptide, purified HLA; details: remark: other sources report otherwise
# [7] = molecular target: T1, HLA-DRB1*0101 (human); test: inhibition of 125I probe peptide binding to purified HLA-DR, gel filtration; details: remark: other sources report otherwise
# [8] = molecular target: T1, HLA-DRB1*0101 (human); test: competition with 125I-labelled standard peptide, purified HLA-DR, gel filtration; details: remark: other sources report otherwise
# [9] = molecular target: HLA-A*0201 (human); test: inhibition of 125I-labelled probe peptide binding to purified HLA, gel filtration; details: remark: other sources report otherwise; scale: ratio
# [10] = molecular target: T2, HLA-DRB1*0301 (human); test: competition with 125I-labeled standard peptide, purified HLA-DR, gel filtration; details: remark: other sources report otherwise
# [11] = molecular target: T3, HLA-DR3 (DRB1*0301) (human); test: competition with 125I-labelled probe peptide on purified HLA-DR, gel filtration; IC50 of standard peptide / IC50 of test peptide; details: remark: other sources report otherwise
# [12] = molecular target: T3, HLA-DR3 (DRB1*0301) (human); test: competition binding assay, purified HLA, 125I-labelled probe peptide, gel filtration; details: remark: other sources report otherwise
# [13] = molecular target: HLA-A*6802 (human); test: competition with 125I probe peptide for purified HLA; details: remark: other sources report otherwise
# [14] = molecular target: HLA-A*6802 (human); test: competition with 125I-labelled probe peptide for purified HLA, gel filtration; details: remark: other sources report otherwise
# [15] = molecular target: HLA-A*0101 (human); test: competition with 125I-labelled probe peptide for purified HLA-A*0101, gel filtration; relative to standard peptide; details: remark: other sources report otherwise
# [16] = molecular target: HLA-A*0101 (human); test: competition with 125I-labelled probe peptide for purified HLA-A*0101, gel filtration; ratio = IC50 of standard peptide 944.02 / IC50 of test peptide; details: remark: other sources report otherwise
# [17] = molecular target: HLA-A*1101 (human); test: inhibition of 125I-labelled probe peptide binding to purified HLA-A*1101, gel filtration; details: remark: other sources report otherwise
# [18] = molecular target: HLA-A*0301 (human); test: inhibition of 125I-labelled probe peptide binding to purified HLA-A*0301, gel filtration; ratio to standard peptide 941.12 ([..], 11 nM); details: remark: other sources report otherwise
# [19] = molecular target: HLA-A*0101 (human); test: competition with 125I-labelled probe peptide for purified HLA-A*0101, gel filtration; details: remark: other sources report otherwise; scale: ratio
# [20] = molecular target: HLA-A*0101 (purified HLA class I molecule) (human); test: competition with 125I-labelled standard peptide on purified HLA-A*0101, gel filtration; details: remark: other sources report otherwise
binder,measurement,setting,value
"LFRNPHQAL [HER2/neu peptide, position 485, 9 amino acids]",relative binding ratio (IC50 of standard peptide / IC50 of test peptide) (ratio to standard peptide),[1],0.0002
CLTSTVQLV [Her2/neu.789],IC50,[2],< 500 nM
same,IC50,[3],8000 nM
"LMPYGCLL [HER2/neu peptide, position 800, 8 amino acids]",relative binding ratio (IC50 of standard peptide / IC50 of test peptide) (ratio to standard peptide),[1],0.0076
"EYLVPQQGFF [HER2/neu peptide, position 1022, 10 amino acids]",relative binding ratio,[4],0.012
LLDHVRENR [Her2/neu.806],IC50,[5],500 nM
"EYLVPQQGF [HER2/neu peptide, position 1022, 9 amino acids]",relative binding ratio,[4],0.0014
"LFRNPHQALL [HER2/neu peptide, position 485, 10 amino acids]",relative binding ratio (IC50 of standard peptide / IC50 of test peptide) (ratio to standard peptide),[1],0.0014
ILDEAYVMA [Her2/neu.767],IC50,[2],< 500 nM
CKKIFGSLAFLPESF [Her2/neu.367],IC50,[6],21 nM
same,IC50,[7],21 nM
"IMVKCWMI [HER2/neu peptide, position 954, 8 amino acids]",relative binding ratio,[4],0.021
"PYDGIPAREI [HER2/neu peptide, position 922, 10 amino acids]",relative binding ratio (IC50 of standard peptide / IC50 of test peptide) (ratio to standard peptide),[1],0.0005
SRLLGICLTSTVQLV [Her2/neu.783],IC50,[6],14 nM
same,IC50,[8],14 nM
same,IC50,[7],14 nM
"TLQGLGISWL [HER2/neu peptide, position 444, 10 amino acids]",relative binding ratio,[9],0.0011
PESFDGDPASNTAPL [HER2/neu DR supermotif exemplary peptide … (position 378)],relative binding ratio (ratio (standard IC50 / test IC50)),[10],-0.0027
"EYHADGGKVPI [HER2/neu peptide, position 876, 11 amino acids]",relative binding ratio,[4],-0.0003
FRELVSEFSRMARDP [HER2/neu peptide … (position 969)],relative binding ratio,[11],0.071
same,relative binding ratio (ratio to standard peptide),[12],0.071
CLTSTVQLV [Her2/neu.789 …],IC50,[13],8000 nM
ILHNGAYSL [Her2/neu.435],IC50,[2],< 500 nM
"PMCKGSRCW [HER2/neu peptide, position 197, 9 amino acids]",relative binding ratio (IC50 of standard peptide / IC50 of test peptide) (ratio to standard peptide),[1],0.0011
HLYQGCQVV [Her2/neu.48],IC50,[2],< 500 nM
"LFEDNYALAVL [HER2/neu peptide, position 107, 11 amino acids]",relative binding ratio (IC50 of standard peptide / IC50 of test peptide) (ratio to standard peptide),[1],0.0006
"IFHKNNQL [HER2/neu peptide, position 172, 8 amino acids]",relative binding ratio,[4],-0.0003
ALCRWGLLL [Her2/neu.5],IC50,[2],< 500 nM
"GMGAAKGL [HER2/neu peptide, position 1091, 8 amino acids]",relative binding ratio,[4],-0.0003
VVLGVVFGI [Her2/neu.665 …],IC50,[13],2000 nM
"IFGSLAFL [HER2/neu peptide, position 370, 8 amino acids]",relative binding ratio,[4],0.012
"GYLYISAW [HER2/neu peptide, position 408, 8 amino acids]",relative binding ratio,[4],0.0044
LQRYSEDPTVPLPSE [HER2/neu DR supermotif exemplary peptide … (position 1109)],relative binding ratio (ratio (standard IC50 / test IC50)),[10],0.027
LVARNVLVK (modifications not checked) [Her2/neu.846.V2],IC50,[5],9000 nM
"LYISAWPDSL [HER2/neu peptide, position 410, 10 amino acids]",relative binding ratio (IC50 of standard peptide / IC50 of test peptide) (ratio to standard peptide),[1],0.084
"NWCMQIAKGM [HER2/neu peptide, position 824, 10 amino acids]",relative binding ratio (IC50 of standard peptide / IC50 of test peptide) (ratio to standard peptide),[1],0.0002
LQRYSEDPTVPLPSE [HER2/neu peptide … (position 1109)],relative binding ratio (ratio to standard peptide),[12],0.027
"LMTFGAKPY [HER2/neu peptide, position 915, 9 amino acids]",relative binding ratio (IC50 of standard peptide / IC50 of test peptide) (ratio to standard peptide),[1],0.0001
"PYVSRLLGI [HER2/neu peptide, position 780, 9 amino acids]",relative binding ratio (IC50 of standard peptide / IC50 of test peptide) (ratio to standard peptide),[1],0.17
NLELTYLPTNASLSF [Her2/neu.59],IC50,[6],11 nM
same,IC50,[7],11 nM
PESFDGDPASNTAPL [HER2/neu peptide … (position 378)],relative binding ratio (ratio to standard peptide),[12],-0.0027
VVLGVVFGI [Her2/neu.665],IC50,[2],< 500 nM
same,IC50,[14],2000 nM
same,IC50,[3],2000 nM
"VLVKSPNHV [HER2/neu peptide, position 851, 9 amino acids]",relative binding ratio,[9],0.0002
"IWIPDGENVKI [HER2/neu peptide, position 738, 11 amino acids]",relative binding ratio,[4],0.0027
"EYVNARHCL [HER2/neu peptide, position 553, 9 amino acids]",relative binding ratio,[4],0.0061
LQGLPREYVNARHCL [HER2/neu peptide … (position 547)],relative binding ratio (ratio to standard peptide),[12],-0.0027
CYGLGMEHLREVRAV [HER2/neu peptide … (position 342)],relative binding ratio,[11],0.0083
same,relative binding ratio (ratio to standard peptide),[12],0.0083
"TLSPGKNGV [HER2/neu peptide, position 1172, 9 amino acids]",relative binding ratio,[9],0.0002
"GMGAAKGLQSL [HER2/neu peptide, position 1091, 11 amino acids]",relative binding ratio,[4],-0.0003
"FESMPNPEGRY [HER2/neu peptide, position 279, 11 amino acids]",relative binding ratio (IC50 of standard peptide / IC50 of test peptide) (relative binding ratio),[15],0.0049
"FTHQSDVWSY [HER2/neu peptide, position 899, 10 amino acids]",relative binding ratio (IC50 of standard peptide / IC50 of test peptide) (relative binding ratio),[15],2.7
same,relative binding ratio,[16],2.7
same,relative binding ratio (IC50 of standard peptide / IC50 of test peptide) (relative binding ratio),[17],0.0005
same,relative binding ratio (IC50 of standard peptide / IC50 of test peptide),[18],0.0003
same,relative binding ratio,[19],2.7
"FSPAFDNLYY [HER2/neu peptide, position 1213, 10 amino acids]",relative binding ratio (IC50 of standard peptide / IC50 of test peptide) (relative binding ratio),[15],5.5
same,relative binding ratio (IC50 of standard peptide / IC50 of test peptide) (relative binding ratio),[17],0.001
same,relative binding ratio (IC50 of standard peptide / IC50 of test peptide),[18],0.0005
same,relative binding ratio,[19],5.5
same,relative binding ratio (IC50 of standard peptide / IC50 of test peptide),[20],5.5
LQGLPREYVNARHCL [HER2/neu DR supermotif exemplary peptide … (position 547)],relative binding ratio (ratio (standard IC50 / test IC50)),[10],-0.0027
"HFNHSGICEL [HER2/neu peptide, position 257, 10 amino acids]",relative binding ratio,[4],0.0002
"LFEDNYAL [HER2/neu peptide, position 107, 8 amino acids]",relative binding ratio (IC50 of standard peptide / IC50 of test peptide) (ratio to standard peptide),[1],0.0006

# From US20040018971A1
